In article PMC10501626 (PLOS Pathogens, 2023) one finds Kd data, which are given here for 1 molecule.

This test has as its target T1, LGP2 regulatory domain (LGP2 RD, residues 537–678), wild type (human, UniProt Q96C10 537-678, biotinylated (biotin added at 3:1 molar ratio) for biolayer interferometry).
T1 construct: also called LGP2 RD WT; WT
T1 sequence (looked up): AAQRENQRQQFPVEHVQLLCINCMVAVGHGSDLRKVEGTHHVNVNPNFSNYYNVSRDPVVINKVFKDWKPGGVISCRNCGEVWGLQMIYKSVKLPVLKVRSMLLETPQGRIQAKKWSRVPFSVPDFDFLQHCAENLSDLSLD
The test can be described thus: BLI. The settings on record: both partners purified.

B1: TBEV NS5 protein, purified (natural protein)
chain: GGSEGDTLGDLWKRKLNGCTKEEFFAYRRTGILETERDKARELLKRGETNMGLAVSRGTAKLAWLEERGYATLKGEVVDLGCGRGGWSYYAASRPAVMSVKACAIAGKGHETPKMVTSLGWNLIKFRAGMDVFSMQPHRADTIMCDIGESNPDAVVEGERTRKVILLMEQWKNRNPTATCVFKALAPYRPEVTEALHRFQLQWGGGLVRTPFSRNSTHEMYYSTAITGNIVNSVNIQSRKLLARFGDQRGPTRVPELDLGVGTRCVVLAEDKVKEKDVQERISALREQYGETWHMDREHPYRTWQYWAATACANRVGGALINGVVKLLSWPWNAREDVVRMAMTDTTAFGQQRVFKEKVDTKAQEPQPGTKVIMRAVNDWILERLARKSKPRMCSREEFIAKVKSNAALGAWSDEQNRWSSAKEAVEDPAFWQLVDEERERHLAGRCAHCVYNMMGKREKKLGEFGVAKGSRAIWYMWLGSRFLEFEALGFLNEDHWASRGSSGSGVEGISLNYLGWHLKGLSTLEGGLFYADDTAGWDTKVTNADLEDEEQLLRYMEGEHKQLAATIMQKAYHAKVVKVARPSRDGGCIMDVITRRDQRGSGQVVTYALNTLTNIKVQLIRMMEGEGVIEASDAHNPRLLRVERWLRDHGEERLGRMLVSGDDCVVRPVDDRFSGALYFLNDMAKTRKDIGEWDHSVGFSNWEEVPFCSHHFHELVMKDGRTLIVPCRDQDELVGRARVSPGCGRSVRETACLSKAYGQMWLLSYFHRRDLRTLGLAICSAVPVDWVPAGRTTWSIHASGAWMTTEDMLDVWNRVWILDNPFMHSKEKIAEWRDVPYLPKSHDMLCSSLVGRKERAEWAKNIWGAVEKVRKMIGQEKFKDYLSCMDRHDLHWESKLESSII
A word on the Kd: it is a measure of binding affinity in units of concentration. For the molecule B1, the Kd amounted to 1200 ± 800 nM.
